Experiment: yeast display, Sf9 membrane polyspecificity reagent, FACS + sequencing; frameworks hold sequencing errors
Summary of the method: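 Galactose-induced (36–48 hours) yeast carrying a synthetic nanobody display library were exposed to 10% biotinylated, detergent-solubilized Sf9 membrane reagent at 4 °C for 1 hour. FACS followed streptavidin microbead enrichment, using low and high (top ~1%) gates for expression (anti-HA) and reagent binding (streptavidin). Colony PCR, MiSeq 2 × 250 sequencing and CDR-length filtering followed. Labels for polyreactivity reflect the gate of origin.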

Sequence | polyreactivity (PSR sort gate)
QVQLVESCGGLVQAGGSLRLSCAASGITIDYYAMGWYRQAPGKERELVAAISSVGNTNYADSVKGRFTISRDNAKNTVYLQMNSLKPEDTAVYYCAARAYGQRLYRVWSGYGYWGQGTQVTVSS | high polyreactivity
QVQLVESCGGLVQAGGSLRLSCAASGRIFRDYAMGWYRQAPGKERELVATITRSGGRTYYADSVKGRFTISRDNAKNTVFLQMNSLKPEDTSVYYCAATYWTYPYHYQYKYDYWGQGTQVTVSS | high polyreactivity
QVQLVESCGGLVQAGGSLRLSCAASGRNFYFNAMGWYRKAPGKERELVARISTGGITNYADSVKGRFTISRDNAKITVYLQMNSLKPEDTAVYYCAADYRRTWRYNYCGQGTQVTVSS | high polyreactivity
QVQLVESCGGLVQAGGSLRLSCAASGSIFPFNAMGWYRQAPGKQRELVAAITRSGGSTYYADSVKGRITISRYIAKNSVYLQMNSLKPQDTAVYYCATDPEWPLPAYYYWGQGTQVTVSS | low polyreactivity
QVQLVESCGGLVQAGGSLRLSCAASGSIFQSYAMGWYRQAPGKERELVAAITERGGSTYYADSVKGRFTISRDNAKNTVYLQMNSLKPEDTAVYYCAADIYYWWGLSDLYTPTEGDYWGQGTQVTVSS | low polyreactivity
QVQLVESCGGLVQAGGSLRLSCAASGSIFRSFAMGWYREAPWKERELVAAISSGGRTKYADSVKGRFTISRDNAKNTVYLQMNSLKPEDTAVYYCAARVNVKYYGFYYWGQGTQVTVSS | high polyreactivity
QVQLVESCGGLVQAGGSLRLSCAASGSIFYFNAMGWYREAPGKERELVAAINISGSSTSYADSVKGRFTISRDNAKNTVYLQMNSLKPEDTAVYYCAAEDEPRILIVRVWDYYWGQGTQVTVSS | low polyreactivity
QVQLVESCGGLVQAGGSLRLSCAASGSTFTPNAMGWNRQAPGKERELVAAIRGLNGRTYYADSVKGRFTISRDNAKNTVYLQMNSLKPEDTAVYYCAAGGYSYYFAWHDYWGQGTQVTVSS | low polyreactivity
QVQLVESCGGLVQAGGSLRLSCAASGSTLYYYAMGWYRQAPGKERELVASISWSGGRTYYADSVKGRFTISRDNAKYTVYLQMNSLKPEDTAVYYCNAVPYRGYDYWGQGTQVTVSS | low polyreactivity
QVQLVESCGGLVQAGGSLRLSCAASVSTFLFYAMGWDRQAPRKERELVAAITSGDSTNYADSVKGRFTISRDNAKNTVYLQMNSLKPEDTAVYYCAASRFGAYYWGQGTQVTVSS | high polyreactivity
QVQLVESCGGLVQAGGSLRLSCADSGRTIYVNAMGCYRQAPGKERELVARITSGGSTYYADSVKGRFTISRDNAKNTVYLQMNSLTPEDTAVLYCAKKYIGYQDWIHSTRRYDYWGQGTQVTVSS | low polyreactivity
QVQLVESCGGLVQAGGSLRLSCADSGYTFTTYVMGWYRQAPGKERELVAAISRRGTSTRYADSVKGRFTISRDNAKNTVYFQMNSLKPEDTAVYYCAARSSVPNRFTRDGYWGQGTQVTVSS | high polyreactivity
QVQLVESCGGLVQAGGSLRLSCDASGITFNYNAMGWYRQAPGKERELVARITWSGTRTYYADSVKGRFTISRDNAKNTVYLQMNSLKPEDTAVYYCNAGPYARYYWGQGTQVTVSS | high polyreactivity
QVQLVESCGGLVQPGGSLRLSCAASGSILKSYAMGWYRKAPGKERELVAAITYRDGSTYYADSVKGRFTISRDNSKNTVYLQMNSLKPEDTAVYYCAAEPSWWNVFYPGYNYWGQGTQVTVSS | high polyreactivity
QVQLVESCGGLVQPGGSLRLSCAASGSTFVNYAMGWYRQAPGKERELVAAITRGVRTYYADSVKGRFTISRDNAKNTVYLQMNSLKAEDTAVYYCNRAIGPYSYPDNYWGQGTQVTVSS | high polyreactivity
QVQLVESCVGLVQAGGSLRLSCAASGRIFSRYAMGWYRQAPGKERELVADITWSGGRPYYADSVKGRFTISRDNAKNTVYLQMNSLKPEDTAVYDCAATGGFSWSRDYWGLGTQVTVSS | low polyreactivity
QVQLVESDGGLVQAGGSLRLSCAASGSTFNVYAMGWNRQAPGKERELVAAITSGGSTYYADSVKGRFTISRDNANNTVYLQMISQKPEDTAVYYCADDVSLSVFKLDYWGQGTQLTVSS | low polyreactivity
QVQLVESDGGLVQAGGSLRLSCAASGSTFTWNAMGWYRQAPGKERELVAAISGDGGSTYYADSVKGRFTISRDNAKNTVYLQMNSLKPEDTAVYYCAASSAHIYSYRYNYWGQGTQVTVSS | low polyreactivity
QVQLVESGAGIVQAGGSHRLSCAASGFIFFGYAAMEWYRQAPGKERELVAAISWSGGSTYYADSVKGRFTISRDHAKYTVYLQMNSLKPEDTAVYYCNAVYLKLYPWLDYWGQVTQVTVSS | low polyreactivity
QVQLVESGAGIVQAGGSLRLSCAASGLTFKVYAMGWYRQAPGKERELVAAISWSGGSTYYADSVKGRFTISRDNAKNTGYLQRNSLKPEDTAVYYCAVEPSYYVVFFQYDYWGQGTQVTVSS | low polyreactivity

Sequence | polyreactivity (PSR sort gate)
QVQLVESGAGIVQAGGSLRLSCAASGSIFRVYAMGWYRQAPWKERELVAAISRTGGSTYYADSVKGRFTISRDNAKNTVYLPMNSLQPEDTAVDYCAARQRYVGYYYWGQGTQVTVSS | high polyreactivity
QVQLVESGAGIVQAGGSLRLSCAASGSIFYYNAMGVYRQAPGKERELVAAITSADSTNYADSVKGRFTISRDNAKNTVYLQMNSLKPEDTAVYFCAADFLAALTYYRTYDYWGQGTQVTVSS | low polyreactivity
QVQLVESGAGIVQAGGSLRLTCAASGSTFVIYDMGWSRQAPGKERELVAAISYSGGSTYYADSVKGRFTISRDNAKNTVYLQMNSLKPEDTAVYYCAAEVPYYYPGFYSYYDDSDYWGQGTQVTVSS | low polyreactivity
QVQLVESGAGLFQAGGRLRISCAPSGFIFVFNAMGWYRQAPGKERELVAAINRGDITNYADSVKGRFTISRDNAKNTVYLQMHSLSPVDTAVYFCAADGEDSLWTGYDYDYWGQGTQVTVST | low polyreactivity
QVQLVESGAGLVHAGGSLRLCCAASGRIFNGYSMGWYRQAPGKERELVAGISYSGGSTYYADSVKGRFTISRDNAKNTVYLQMNSQKPEETAVYYCAKRPYYLGNRYRFDYWGQGTQVSVSS | high polyreactivity
QVQLVESGAGLVHAGGSLRLSCAAYGRTFLAYAKGWYRQAHGKERELVAAISKSGGRTYYADSVKGRFTISRDYAKHTVYLQMNSLKPEDTAVYYCAADKQAYVTDDYWGQGTQVTVSS | high polyreactivity
QVQLVESGAGLVHAGGSLRLSCASSGSIFNVYAMGWYRQAPGKERELVAAIRSSGGSTYYADSVKGRFTISRDKAKNTVNLQMNSLKPEDTAVYYCAAVTRAIRTWRMYYWGQGTQVTVSS | high polyreactivity
QVQLVESGAGLVQAGGRLRISCAASGSTFDGNTMGWYRQAPGKERELVAAISGSGGSTYYADSVKGRFTISRDNAKNTVYLQMNSLKPEDTAVYYCAADFRVGRYDYWGQGTQVTVSS | high polyreactivity
QVQLVESGAGLVQAGGSLGLSCAASGSNFIYNAMGLYRQAPGKERELVAAITDRSTKYADSVKGRFTISRDNAKYSGYVQMNSLKTEDTAVYYSNAYVWRWRYDSWGQVTQVTVSS | low polyreactivity
QVQLVESGAGLVQAGGSLRFSCAASGFIFVDNTMGWSSQAPGKEMELVAAISYSAGSTYYADSVKGRFTISRDNAMNTVYLQMNCLKPEDTAVYDCAAQHSWVTSYLYSYDYWGQGTQVTVSS | low polyreactivity
QVQLVESGAGLVQAGGSLRISCAASGSTFDGNDIGWYRQAPGKERELVAAITIGGGSTYYADSVKGRFTISRDNAKNTVYLQMNSLKPEDTAVYYCAKDDHTGVHTYPGDYWGQGTQVTVSS | low polyreactivity
QVQLVESGAGLVQAGGSLRLCCAASGRTYRLYAMGWYRQAPGKERELVAAITRGGRTNYADSVKGRFTISRDNAINTVYLQMYSLKPEDIAVYYCAARYVERHTDYYYWGQGTQVTVSS | low polyreactivity
QVQLVESGAGLVQAGGSLRLCCAASGSTFTKNAMGLYRQAPGKERELVAAISWRDGSTYYADSVKGRFTISRDNAKNTVYLQMNSLKPEDTAVYYCNAVRRSFGKYPGLLDYDYWGQGTQVTVSS | high polyreactivity
QVQLVESGAGLVQAGGSLRLICAASGFIFADYAMGWYRQAPGKERELVAAITSSGSRTYYADSVKGRFTISRDNAKNTVYLQMNSLKPEDTAVYYCAVRGVYYYHFAFDYWGQGTQVTVSS | high polyreactivity
QVQLVESGAGLVQAGGSLRLSCAASGFIFFYYAMGWYRQAPGKERELVAAISASGGSTYYADSVKGRFTISRDNAKNTVYLQLNSLKPEDTAVYYCAARYRKAESARWEYDYWGQGTQVTVSS | high polyreactivity
QVQLVESGAGLVQAGGSLRLSCAASGFIFNRYAMGWYRQAPGKERELVAAIRGSGGSTYADSVKGRFTISRDNAKNTVYLQMNSLKPEDTAVYYCNKERPRRNGQVARYDYWGQGTQVTVSS | low polyreactivity
QVQLVESGAGLVQAGGSLRLSCAASGFIFRGNTMGWYRQAPGKERELVASITRGGGRTYYADSVKGRFTISRDNAKNTVYLQMNSLKPEDTAVYYCAARTRSDNSYHGGEYWGQGTQVTVSS | high polyreactivity
QVQLVESGAGLVQAGGSLRLSCAASGIFVRYGMGWYRQAPGKERELVAAISYGGGSTYYADSVKGRFTISRDNAKITVYLQMNSLKPEDTAVYYCAASYANRYKYDEYDYWGQGTQVTVSS | high polyreactivity
QVQLVESGAGLVQAGGSLRLSCAASGITFSKYAMGWYRVARGKDRELVAAISSTASTNYADSVKGRFTISRDNAKNTVYLQMNSQKPDDTAVYYCNDVLFFQLFWTYDDYWGQGSQVTVSS | low polyreactivity
QVQLVESGAGLVQAGGSLRLSCAASGLTFFYYAMGWYRQAPGKERELVAAIDNDGGTYYADSVKGRFTISRDNAKNTVYLLMNSLKPEDTAVYYCNADYQTVDDPYGYDYWGQGTQVTVSS | low polyreactivity

Source: the nanobody polyreactivity screen of Harvey et al. (2022)
